{"source": "the supplement of paper PMC11908140", "parents": {"B1": {"name": "library; numbered along this chain (parent)", "chain": "MRKPRAAVGSGHRKQAASQEGRQKHAKNNSQAKPSACDGLARQPEEVVLQASVSSYHLFRDVAEVTAFRGSLLSWYDQEKRDLPWRRRAEDEMDLDRRAYAVWVSEVMLQQTQVATVINYYTGWMQKWPTLQDLASASLEEVNQLWAGLGYYSRGRRLQEGARKVVEELGGHMPRTAETLQQLLPGVGRYTAGAIASIAFGQATGVVDGNVARVLCRVRAIGADPSSTLVSQQLWGLAQQLVDPARPGDFNQAAMELGATVCTPQRPLCSQCPVESLCRARQRVEQEQLLASGSLSGSPDVEECAPNTGQCHLCLPPSEPWDQTLGVVNFPRKASRKPPREESSATCVLEQPGALGAQILLVQRPNSGLLAGLWEFPSVTWEPSEQLQRKALLQELQRWAGPLPATHLRHLGEVVHTFSHIKLTYQVYGLALEGQTPVTTVPPGARWLTQEEFHTAAVSTAMKKVFRVYQGQQPGTCMGSKRSQVSSPCSRKKPRMGQQVLDNFFRSHISTDAHSLNSAAQ"}}, "data": [{"variants_of": "B1", "test": "8OG:A repair function score (normalized; synonymous = 0, nonsense = -1) (normalized log-likelihood score); higher = more repair activity (WT-like)", "settings": "with 8OG:A DNA repair reporter (GFP) in HEK-293 MUTYH KO cells", "description": "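Saturation mutagenesis (NNN codon scan) of the MUTYH cDNA (521-aa nuclear isoform NM_001048174.1 / NP_001041639), stably expressed under doxycycline induction in HEK-293 MUTYH knockout cells. Cells were co-transfected with an 8OG:A-bearing GFP repair reporter plus mCherry and sorted 72 h later into GFP+ and GFP− bins, three replicates per tile. The Rosace log2 enrichment (GFP+ vs GFP−) was converted per tile to a normalized function score with synonymous variants centered at 0 and nonsense variants (codons 1-471) at -1; low-abundance variants were removed.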", "values": [{"variant": "MRKPRAAVGSGHRKQAASQEGRQKHAKNNSQAKPSACDGLARQPEEVVLQASVSSYHLFRDVAEVTAFRFSLLSWYDQEKRDLPWRRRAEDEMDLDRRAYAVWVSEVMLQQTQVATVINYYTGWMQKWPTLQDLASASLEEVNQLWAGLGYYSRGRRLQEGARKVVEELGGHMPRTAETLQQLLPGVGRYTAGAIASIAFGQATGVVDGNVARVLCRVRAIGADPSSTLVSQQLWGLAQQLVDPARPGDFNQAAMELGATVCTPQRPLCSQCPVESLCRARQRVEQEQLLASGSLSGSPDVEECAPNTGQCHLCLPPSEPWDQTLGVVNFPRKASRKPPREESSATCVLEQPGALGAQILLVQRPNSGLLAGLWEFPSVTWEPSEQLQRKALLQELQRWAGPLPATHLRHLGEVVHTFSHIKLTYQVYGLALEGQTPVTTVPPGARWLTQEEFHTAAVSTAMKKVFRVYQGQQPGTCMGSKRSQVSSPCSRKKPRMGQQVLDNFFRSHISTDAHSLNSAAQ", "note": "[G70F]", "8OG:A repair function score": -0.115}, {"variant": "MRKPRAAVGSGHRKQAASQEGRQKHAKNNSQAKPSACDGLARQPEEVVLQASVSSYHLFRDVAEVTAFTGSLLSWYDQEKRDLPWRRRAEDEMDLDRRAYAVWVSEVMLQQTQVATVINYYTGWMQKWPTLQDLASASLEEVNQLWAGLGYYSRGRRLQEGARKVVEELGGHMPRTAETLQQLLPGVGRYTAGAIASIAFGQATGVVDGNVARVLCRVRAIGADPSSTLVSQQLWGLAQQLVDPARPGDFNQAAMELGATVCTPQRPLCSQCPVESLCRARQRVEQEQLLASGSLSGSPDVEECAPNTGQCHLCLPPSEPWDQTLGVVNFPRKASRKPPREESSATCVLEQPGALGAQILLVQRPNSGLLAGLWEFPSVTWEPSEQLQRKALLQELQRWAGPLPATHLRHLGEVVHTFSHIKLTYQVYGLALEGQTPVTTVPPGARWLTQEEFHTAAVSTAMKKVFRVYQGQQPGTCMGSKRSQVSSPCSRKKPRMGQQVLDNFFRSHISTDAHSLNSAAQ", "note": "[R69T]", "8OG:A repair function score": -0.172}, {"variant": "MRKPRAAVGSGHRKQAASQEGRQKHAKNNSQAKPSACDGLARQPEEVVLQASVSSYHLFRDVAEVTAFSGSLLSWYDQEKRDLPWRRRAEDEMDLDRRAYAVWVSEVMLQQTQVATVINYYTGWMQKWPTLQDLASASLEEVNQLWAGLGYYSRGRRLQEGARKVVEELGGHMPRTAETLQQLLPGVGRYTAGAIASIAFGQATGVVDGNVARVLCRVRAIGADPSSTLVSQQLWGLAQQLVDPARPGDFNQAAMELGATVCTPQRPLCSQCPVESLCRARQRVEQEQLLASGSLSGSPDVEECAPNTGQCHLCLPPSEPWDQTLGVVNFPRKASRKPPREESSATCVLEQPGALGAQILLVQRPNSGLLAGLWEFPSVTWEPSEQLQRKALLQELQRWAGPLPATHLRHLGEVVHTFSHIKLTYQVYGLALEGQTPVTTVPPGARWLTQEEFHTAAVSTAMKKVFRVYQGQQPGTCMGSKRSQVSSPCSRKKPRMGQQVLDNFFRSHISTDAHSLNSAAQ", "note": "[R69S]", "8OG:A repair function score": -0.0909}, {"variant": "MRKPRAAVGSGHRKQAASQEGRQKHAKNNSQAKPSACDGLARQPEEVVLQASVSSYHLFRDVAEVTAFWGSLLSWYDQEKRDLPWRRRAEDEMDLDRRAYAVWVSEVMLQQTQVATVINYYTGWMQKWPTLQDLASASLEEVNQLWAGLGYYSRGRRLQEGARKVVEELGGHMPRTAETLQQLLPGVGRYTAGAIASIAFGQATGVVDGNVARVLCRVRAIGADPSSTLVSQQLWGLAQQLVDPARPGDFNQAAMELGATVCTPQRPLCSQCPVESLCRARQRVEQEQLLASGSLSGSPDVEECAPNTGQCHLCLPPSEPWDQTLGVVNFPRKASRKPPREESSATCVLEQPGALGAQILLVQRPNSGLLAGLWEFPSVTWEPSEQLQRKALLQELQRWAGPLPATHLRHLGEVVHTFSHIKLTYQVYGLALEGQTPVTTVPPGARWLTQEEFHTAAVSTAMKKVFRVYQGQQPGTCMGSKRSQVSSPCSRKKPRMGQQVLDNFFRSHISTDAHSLNSAAQ", "note": "[R69W]", "8OG:A repair function score": -3.43}, {"variant": "MRKPRAAVGSGHRKQAASQEGRQKHAKNNSQAKPSACDGLARQPEEVVLQASVSSYHLFRDVAEVTAFVGSLLSWYDQEKRDLPWRRRAEDEMDLDRRAYAVWVSEVMLQQTQVATVINYYTGWMQKWPTLQDLASASLEEVNQLWAGLGYYSRGRRLQEGARKVVEELGGHMPRTAETLQQLLPGVGRYTAGAIASIAFGQATGVVDGNVARVLCRVRAIGADPSSTLVSQQLWGLAQQLVDPARPGDFNQAAMELGATVCTPQRPLCSQCPVESLCRARQRVEQEQLLASGSLSGSPDVEECAPNTGQCHLCLPPSEPWDQTLGVVNFPRKASRKPPREESSATCVLEQPGALGAQILLVQRPNSGLLAGLWEFPSVTWEPSEQLQRKALLQELQRWAGPLPATHLRHLGEVVHTFSHIKLTYQVYGLALEGQTPVTTVPPGARWLTQEEFHTAAVSTAMKKVFRVYQGQQPGTCMGSKRSQVSSPCSRKKPRMGQQVLDNFFRSHISTDAHSLNSAAQ", "note": "[R69V]", "8OG:A repair function score": -0.212}, {"variant": "MRKPRAAVGSGHRKQAASQEGRQKHAKNNSQAKPSACDGLARQPEEVVLQASVSSYHLFRDVAEVTAFYGSLLSWYDQEKRDLPWRRRAEDEMDLDRRAYAVWVSEVMLQQTQVATVINYYTGWMQKWPTLQDLASASLEEVNQLWAGLGYYSRGRRLQEGARKVVEELGGHMPRTAETLQQLLPGVGRYTAGAIASIAFGQATGVVDGNVARVLCRVRAIGADPSSTLVSQQLWGLAQQLVDPARPGDFNQAAMELGATVCTPQRPLCSQCPVESLCRARQRVEQEQLLASGSLSGSPDVEECAPNTGQCHLCLPPSEPWDQTLGVVNFPRKASRKPPREESSATCVLEQPGALGAQILLVQRPNSGLLAGLWEFPSVTWEPSEQLQRKALLQELQRWAGPLPATHLRHLGEVVHTFSHIKLTYQVYGLALEGQTPVTTVPPGARWLTQEEFHTAAVSTAMKKVFRVYQGQQPGTCMGSKRSQVSSPCSRKKPRMGQQVLDNFFRSHISTDAHSLNSAAQ", "note": "[R69Y]", "8OG:A repair function score": -0.421}]}]}
